Experimental data published in a protein production outcome set (Wang et al. 2014).

Experiment: label from the status in PepcDB records
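Further: failed if final PepcDB status was selected cloned or expressed and not failed if soluble or beyond.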

Row | Sequence | protein production
1 | MDRHEYEHRIINRIVENHGRDTRQLLSILREVQHEFRQVSPEAQQKVAESLGVCITQVRAVVDFYSFLSTVPLGKFDIRISDSITDHMLGSREVAAGLCRKLGIQPGEPRQDGRVGLSFTSCTGLCDQGPAGLINGYAIPRLTEDRTDQIARLINDDIPLGEWPEEFFAIKENIRLADRLLGNPVRPGEALERTLALDRETMFGEIETSQLRGRGGAGFNTAWKWRFCYEGPETAAVCPPGQPAAGIERYVVCNADEGEPGTFKDRVLLQSCADQVFEGMTVCAYLVGAKQGFLYLRGEYLYLHDQLEAVLAARRRHGLLGKSILGREGFDFDIEIRLGAGAYICGEESALIESLEGNRGVPRNRPPYPVTHGYLGKPTVVNNVETFFAAAAIAVHGGEWFAEVGTEKSKGTKLLSICGDCARPGIYEYPFGVTIRQVLEDCGAADVLGVQIGGPSGTFLSDKECDRKLAYEDLATGGSFIVFDRTRDVIGIARNFTHFFAHESCGFCTPCRVGTALLKNLLDKIAEGHGATGDLAELSRLGRFVRSASHCGLGQTAANPILSTLERYPEIYQARLKTIDFEPGFDLDGALATARRLSGRDDANAHLSQS | failed
2 | MADAPIDIFQSILSRKSIRAFTDQPVTQETIREILKLAARAPSGTNLQPWQVIVLTGKILQKVGQELSQLVLSGIKGEREYHYYPRQWREPYLSRRRKVGLDLYKSLGIQKGDQEKMLHQKAKNFLFYGAPVGLLFTIDHDMEMGSWLDLGMFMQTIMLAARGFGLDTCAQAAFADYHKQIRSLLSVPSDRHIICGMALGYRDMNAPENNFETEREPIDNFVHFIKSYP | not failed
3 | MAQKENSYPWPYGRQTAPSGLSTLPQRVLRKEPVTPSALVLMSRSNVQPTAAPGQKVMENSSGTPDILTRHFTIDDFEIGRPLGKGKFGNVYLAREKKSHFIVALKVLFKSQIEKEGVEHQLRREIEIQAHLHHPNILRLYNYFYDRRRIYLILEYAPRGELYKELQKSCTFDEQRTATIMEELADALMYCHGKKVIHRDIKPENLLLGLKGELKIADFGWSVHAPSLRRKTMCGTLDYLPPEMIEGRMHNEKVDLWCIGVLCYELLVGNPPFESASHNETYRRIVKVDLKFPASVPTGAQDLISKLLRHNPSERLPLAQVSAHPWVRANSRRVLPPSALQSVA | failed
4 | MDTAVNESLSISYNLEQFLIVLSVSLSIATLSKTVPILRKIPYTLLLVIVGMALAFVDVKLINLSPELIMEIFLPPLLFEAAWNLQWRNLKENWFPITLFATLGVVICVVGIAFPLSYWGGMELAIAFLAAAALSATDPVSVIALFKELGASKKLNTLMEGESLFNDGVAVVVFLILVGIPLGTSTFDLSVTLARFVTVIGIGVGCGLVIGFSLSLLTQRFDLPFVEQSLTLVSAYGAYILAENLGGSGVIGVVVVGMVLGNYGSRIGMNPRTRLIVSIFWEFVAFFVNSIIFLLIGDQIGLSSLSDHLNLILIAIAAVVVTRLVSVFGLSLISNKVSDQISSTHITLQEQTVLWWGGLRGSVAIAVALSVPQAIAERQAIIDIVFGVVLFTLLVQGLTTQFVLKGLDLIGDQPQRLEYAELVSRQIALRRVLAELEKTDEFPDINPERLRYKQELVQGQLQSVTDKLKLLLQEYPLLQEVANKKFDQTVLDIEAETYADLIRMGRLEENIMPLLVTLEGENVAEPS | failed
5 | MRKLFIPLLLFSALEANEKNGFFIEAGFETGLLEGTQTQEKRHTTTKNTYATYNYLPTDTILKRAANLFTNAEAISKLKFSSLSPVRVLYMYNGQLTIENFLPYNLSNVKLSFTDAQGNVIDLGVIETIPKHSKIVLPGEAFDSLKIDPYTLFLPKIEATSTSVSDANTQRVFETLNKIKTDLVVNYRNENKFKDHENHWEAFTPQTAEEFTNLMLNMIAVLDSQSWGDAILNAPFEFTNKDGGEECDTSKENECVNPGTNGRVNSKVDQQYVLNKQDIVNKFRNKADLDVVILKDSGVVGLGSDITPSNNDDGKHYGQLGVVASALDPKKLFGDNLKTINLEDLRTILHEFSHTKGYTHNGNMTYQRVPVMKDGQVEKDSNGKPKDSDGLPYNVCSLYGGQGQSAFPSNYPNSIYHNCADVPAGFLGVTAAVWQQLINQNALPINYANLSTQTNYNLNASLNTQDLANSMLSTIQKTFVTSSVTNHYSSSASQSFRSPILGVNAKIGYQNYFNDFIGLAYYGIIKYNYAKAINQKVQQLSYGGGIDLLLDFITTYSNKNSPTGIQTKRNFSSSFGIFGGLRGLYNSYYVLNKVKGSGNLDVATGLNYRYKHSKYSVGISIPLIQRKASVVSNGGDYTNSFVFNEGASHFKVFFNYGWVF | failed
6 | MKFSFHTCESNYFKDPFFYIMLSISILFSYLFSYYTILKYVSLNATAYDLGIYVSILENTMHGHVMYANPLLINSFSEHFSPFLFVIYPIYWFFPYVKTLLIMQSVMISFSGLVIYLLAREIFFINNFKKDILLEMLALFISTSYILSPYIESPLSFDFHLMPFLILFVPLSFYFFMKKYKILNLIVLILIISLHSLFVIMVFFIISYQFIFRIRNEGNLNCHKIIRTIANINISDNLKKTPKSKYVLQKIVRSKTLIKIIITLILLVGYLYFASLMKTFIASGAVALSPPSTMSTGSVSSSLAGLFTDLFTRPMLIESAFLINFPDKIIFAFYAFANTGFLVFLDPLSLLMDIPYFLYAYLSSYGPYYSLGYQYSTMIIPFIFIGALFGIRKIVQSARATDSDDVRRTIKKILVGVISIVIVSSLFELPLDPISPRNIFIESGSMANFHEFAYNNGSEIAFELQKEIGESDPYLLTINNLYPVFAKDTNAYVIAFAWNSQLRNLIYGYHIEYLVNQPDSFWSNQFNPSMNDLIDNNTFISHYGVYMESFGQDGVIVYKLNYTGLPVLMIPYSAYLPATSFYIAAGEYNYSIVNGSYVYHNTTMGTAWFGPYTTLLPGRYNITYYLESVNSEANSSILLDVTTNAGTVTLNQTVINSSELPNGDLEEVTLHLTLNETKYSVEFRGMAIDWTGTLIFKGVKYSVY | failed
7 | MVIGVPKEIKTLENRVALTPGGVESLVRRGHTVLVERGAGEGSGLSDAEYARAGAELVGREEAWGAEMVVKVKEPLPEEYGFLREGLILFTYLHLAADRGLTEAMLRSGVTGIAYETVQLPDGTLPLLVPMSEVAGRMAPQVGAQFLEKPKGGRGVLLGGVPGVAPASVVILGGGTVGTNAAKIALGMGAQVTILDVNHKRLQYLDDVFGGRVITLTATEANIKKSVQHADLLIGAVLVPGAKAPKLVTRDMLSLMKEGAVIVDVAVDQGGCVETIRPTTHAEPTYVVDGVVHYGVANMPGAVPRTSTFALTNQTLPYVLKLAEKGLDALLEDAALLKGLNTHKGRLTHPGVAEAFGLPYTPPEEALRG | not failed
8 | MKRLDLVAGPNGAGKSTFVALTLAPLLPGIVFVNADEIAKQRWPDDPTSHAYQAAQVAADTRARLIDLGRPFIAETVFSHPSKLELIRTARTAGYTVVLHVLVIPEGLAVERVRHRVAAGGHDVPETKIRERHRRLAELVAQAITLADGATVYDNSRLAGPRIVAQFSGGGIIGRACWPSWTPPPLMSRWSNRPETA | failed
9 | DIDTFYSKVHNIIGQLINAKNFFIAKYEKDSDTLSFSYYVDEKTSNLAKDFKPRKLSNRYSELVLRRRETVLLTYQEMMSLHLEGETKKPQDDIHSWLGVPLIYSGQLLGVMVLQSYYYKTTYNQQDAELLNFVSNHVSAAIKRRELAD | failed
10 | MRVSVVIPARNEEAYLPSALEAVLAQTLPPFEVIVVDNASTDRTREVAEALGARVVFCGRRGVAYARQAGLLAARGEWVAMTDADSLPTPRWLERLAHKAPGAVAVYGPLRFYGVSPLEAALSEWGYRAFLNLMALLGRPNLAGANMMVLKEAALRVGGFPEVEAREDVLLGWRLKALGPVRYAGDALVLTSARRLQGGWGRFLLRQARNLLGDPRGYFGEAGERERLEHHHHHH | not failed
11 | SSHQPLSCLTEKEDSPSESTGNGPPHLAHPNLDTFTPEELLQQMKELLTENHQLKEAMKLNNQAMKGRFEELSAWTEKQKEERQFFEIQSKEAKERLMALSHENEKLKEELGKLKGKSERSSEDPTDDSRLPRAEAEQEKDQLRTQVVRLQAEKADLLGIVSELQLKLNSSGSSEDSFVEIRMAEGEAEGSVKEIKHSPGPTRTVSTGTSRSADGAKNYFEHEELTVSQLLLCLREGNQKVERLEVALKEAKERVSDFEKKTSNRSEIETQTEGSTEKENDEEKGPETVGSEVEALNLQVTSLFKELQEAHTKLSEAELMKKRLQEKCQALERKNSAIPSELNEKQELVYTNKKLELQVESMLSEIKMEQAKTEDEKSKLTVLQMTHNKLLQEHNNALKTIEELTRKESEKVDRAVLKELSEKLELAEKALASKQLQMDEMKQTIAKQEEDLETMTILRAQMEVYCSDFHAERAAREKIHEEKEQLALQLAVLLKENDAFEDGGRQSLMEMQSRHGARTSDSDQQAYLVQRGAEDRDWRQQRNIPIHSCPKCGEVLPDIDTLQIHVMDCII | failed
12 | MTFKRSLFFLLLLLSVATARAQIDVDRVITIGRNALYFNDYVVSIGYFNQVVGLRPWMAEPYFYRGIAKISLEDYTGAEADASACLQRNALIPKAYLLRGVARQNLGKIDSAIQDYRRGLELMPNDEGMLVNLTGVLTDSKRYAEAREGVAELLKFYPKSKQAHIALSAIELGEQDTVAAIRELNEVLRMDSLFAPAYSQMAMLHLKSKRNAEAMAALDKAIELEPSELSNYINRGVIRYQSNDLRGAMDDYSHVVRQKPNDKLARFNRALLRSYLGDVNNAIEDFDVVIRLEPENYHALYNRAILLTQINENRKAITDFDKVLGHYPDFVVGYYARSQAKKALGDTRGAERDYWRAFDIEKAAQSKTKKTKKSSSSTSTKETREDSDETIEKFNLLVVSEKSSEKRTRYSSRIRGRIQDNDVEVQPSPLFVLSYYEQSSSEEVPRVYYSEAIARFNDKKVLPKRLKPINREVALSQEQVAYHEQDITEISERTAGNADLCFRRALDYMLIQNLEQAIVDFDQAVELNKQFALAYFGRAIARAKLVEARQGASFIHQEAETVNAMTKALITTPRTNAMGVPAAAESPERKPAISDVDGELVMRDLNRTIELDPNFAYAYYNRAVLLARRGDTDAALSDYDRAIKAYPEFADAYFNRGLLLLSRGKAKEGIADLSRAGEYGLYKAYNIIKRMSTKS | failed
13 | MSANNTAKNMHPETRAVGSETSSLQASQDEFENLVRNVDVKSRIMDQYADWKGVRYRLGGSTKKGIDCSGFVQRTFREQFGLELPRSTYEQQEMGKSVSRSNLRTGDLVLFRAGSTGRHVGIYIGNNQFVHASTSSGVIISSMNEPYWKKRYNEARRVLSRSLEHHHHHH | not failed
14 | MKIKATIERVPGGMMIIPLFLGAALNTFAPGTAEFFGGFTGALITGTLPILGVFIFCVGATIDFRSSGYIARKGITLLLGKIGFAALLGVIAAQFIPDDGIQSGFFAGLSVLAIVAVMNETNGGLYLALMNHMGRKEDAGAFAFISTESGPFMTMVTFGVTGLAAFPWETLAATVIPFLLGCILGNLDHDLRDLFSKVVPAIIPFFAFSLGNTLNFGMLIQSGLLGIFIGVSVVILSGSSLFLLDRFIARGDGVAGVAASSTAGAAVAVPYALAEANASFAPVAESATAIIATSVIVTSLLTPLATVWVDKKIKQKKRRTPPPKNQMTIN | failed
15 | MRAVIPYKKAGAKSRLSPVLSLQEREEFVELMLNQVISSLKGAGIEQVDILSPSVYGLEEMTEARVLLDEKDLNEALNRYLKEAEEPVLIVMADLPLLSPEHIKEISSTEKDVCIVPGKGGGTNALFIKNPSKYRVKYYGSSFLTHCSIATDSGQDFEIYDSFMAGTDIDEPEDLVELLIHGKGAAKDYIESKFRLEVKKGRVGLVPL | not failed
16 | MKKSSILILIIICLVGCKKGSNETTITGEIKGLGTDTLYLYGMDELYDRIDTIYVENDKFSYTTSVDTITSAYLLLKNRIEYPVFLDKGNKIKIKGDTINLNFLTISGNIYNEEFTDFQKALEDPADPSEKAGEETVDKRITVEKANTAEEMAEEFILQHHSSYVSLYLLDKYFVQKETPDFSKIKKLVEVMTGVLQDKPYIERLNETITQAEKSEIGKYAPFFSLPNAKGEKITRSSDAFKQKSLLINFWASWNDSISQKQSNSELREIYKKYKKNKYIGMLGISLDVDKQQWKDAIKRDTLDWEQVCDFGGLNSEVAKQYSIYKIPANILLSSDGKILAKNLRGEELKKKIENIVEEATEKEKKNKQKK | failed
